In test [1] the target is human ROR1 (on the cell surface) (human) (UniProt Q01973). The experiment in a line: flow cytometry, Ba/F3-ROR1 cells, D10 as detection antibody. (In general: A flow cytometer gives signals particle by particle.)
In test [2] the target is T1, human ROR1 (on the cell surface) (human, UniProt Q01973 30-937).
T1 construct: whole, on cells; Ba/F3 cells carry it by lentiviral transduction; also called Ba/F3-ROR1; ROR1 on the surface of human cells
The test is described as follows: flow cytometry, HT-29 cells. The protocol:
(§1) The affinities of 19F6_Hu35V1, 3D8_HuC24 and 38F8_Hu57 to ROR1 on the surface of human cells were determined by flow cytometry.
(§2) In addition to Ba/F3-ROR1 overexpression cells, human mantle cell lymphoma cell line Jeko-1 (Nanjing Cobioer Biosciences), human colon cancer cell line HT-29 (the Cell Bank of the Chinese Academy of Sciences), human lung cancer cell line A549 (the Cell Bank of the China Academy of Sciences) were also used for flow cytometry analysis. Anti-ROR1 antibody UC961 (the VH and VL of antibody UC961 were SEQ ID NO: 5 and 6 disclosed in WO2018237335A1, respectively) and anti-TNP antibody were used as positive control and negative control, respectively. Ba/F3-ROR1, Jeko-1, HT-29 and A549 cells were incubated with different concentration gradients of the purified humanized antibodies on ice for 30 minutes, respectively, washed with flow buffer (PBS+2% FBS) twice, then incubated with goat anti-human fluorescent secondary antibody (Jackson ImmunoResearch) on ice for 30 minutes, and finally loaded on the machine for detection.

Test [3] deals with T1, human ROR1 (on the cell surface). The experiment in a line: flow cytometry, Ba/F3-ROR1 cells. The protocol:
as §1, §2

Test [4] shares this target. The experiment in a line: flow cytometry, Jeko-1 cells. How it is done:
as §1, §2

The target is the same in test [5]. The experiment in a line: flow cytometry, Ba/F3-ROR1 cells. The protocol:
as §1, §2
This is another data set of the same source.

Test [6] shares this target. The experiment in a line: flow cytometry, A549 cells. The protocol: as §1, §2
The target is the same in test [7]. The experiment in a line: flow cytometry, Ba/F3-ROR1 cells. The protocol:
as §1, §2
The source holds these as a separate data set.

Test [8] deals with T2, human ROR1 ECD protein (human, UniProt Q01973 30-406).
T2 construct: extracellular domain; also called human ROR ECD protein
T2 sequence (Q01973 30-406): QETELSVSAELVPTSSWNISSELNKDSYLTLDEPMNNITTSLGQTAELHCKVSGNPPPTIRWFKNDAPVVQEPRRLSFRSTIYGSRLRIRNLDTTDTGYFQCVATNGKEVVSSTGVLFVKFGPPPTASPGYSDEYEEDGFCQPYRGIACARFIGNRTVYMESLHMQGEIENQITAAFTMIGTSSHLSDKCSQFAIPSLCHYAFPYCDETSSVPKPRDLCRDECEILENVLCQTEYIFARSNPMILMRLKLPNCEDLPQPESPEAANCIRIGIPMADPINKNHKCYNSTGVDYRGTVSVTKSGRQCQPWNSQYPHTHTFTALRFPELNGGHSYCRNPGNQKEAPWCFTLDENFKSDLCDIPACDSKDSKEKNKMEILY
The experiment in a line: BLI (Octet ForteBio), antibody on AHC probe, ROR1 ECD in solution, 1:1 model; average of three determinations. A general note: BLI is a label-free optical method that tracks binding on a fibre tip over time.

Test [9] deals with T1, human ROR1 (on the cell surface). The test is described as follows: flow cytometry, Jeko-1 cells. How it is done:
as §1, §2
The source holds these as a separate data set.

The target is the same in test [10]. The test is described as follows: flow cytometry, A549 cells. How it is done:
as §1, §2
This is another data set of the same source.

Test [11] has the same target. The experiment in a line: flow cytometry, HT-29 cells. How it is done:
as §1, §2
The source holds these as a separate data set.

Test [12] shares this target. The test is described as follows: flow cytometry, HT-29 cells. How it is done:
as §1, §2
This is another data set of the same source.

Test [13] has the same target. The test is described as follows: flow cytometry, A549 cells. How it is done:
as §1, §2
The source holds these as a separate data set.

For test [14] the target is unchanged. The experiment in a line: flow cytometry, Jeko-1 cells. The source holds these as a separate data set.
In test [15] the target is human ROR1 ECD protein (Homo sapiens, UniProt Q01973). The experiment in a line: Dynamic affinity determination by Octet ForteBio. In kind it is binding. To be noted: for kdis / kon: 1:1 kinetic binding model, UC961 value is an average of three determinations. The protocol:
The dynamic affinities of 19F6_Hu35V1, 3D8_HuC24, 38F8_Hu57 and the positive control PGP-1501 antibody UC961 to human ROR1 ECD protein were determined by Octet ForteBio method. The specific experimental steps were as follows: the anti-human IgG Fc AHC probe (ForteBio) was first bound to the antibody to be tested to a response signal value of 0.8-1.2 nm, and the dynamic affinity was measured by immersing the antibody-coated probe into wells containing human ROR ECD protein at different concentrations (16, 8, 4, 2, 1, 0.5, 0.25, and 0 μg/mL), the binding was conducted for 2-4 minutes, followed by dissociation for 4-6 minutes, 1:1 kinetic binding model was used for all fitting analysis.

The target of test [16] is T2, human ROR1 ECD protein. The test is described as follows: BLI (Octet ForteBio), antibody on AHC probe, ROR1 ECD in solution. How it is done:
The dynamic affinities of 19F6_Hu35V1, 3D8_HuC24, 38F8_Hu57 and the positive control PGP-1501 antibody UC961 to human ROR1 ECD protein were determined by Octet ForteBio method.

Numbering of substitutions follows the chain as printed.

Sequence of human ROR1 ECD protein (Homo sapiens, UniProt Q01973) (Q01973 30-406 limits assumed): as the sequence (Q01973 30-406) above
T1 sequence (Q01973 30-937): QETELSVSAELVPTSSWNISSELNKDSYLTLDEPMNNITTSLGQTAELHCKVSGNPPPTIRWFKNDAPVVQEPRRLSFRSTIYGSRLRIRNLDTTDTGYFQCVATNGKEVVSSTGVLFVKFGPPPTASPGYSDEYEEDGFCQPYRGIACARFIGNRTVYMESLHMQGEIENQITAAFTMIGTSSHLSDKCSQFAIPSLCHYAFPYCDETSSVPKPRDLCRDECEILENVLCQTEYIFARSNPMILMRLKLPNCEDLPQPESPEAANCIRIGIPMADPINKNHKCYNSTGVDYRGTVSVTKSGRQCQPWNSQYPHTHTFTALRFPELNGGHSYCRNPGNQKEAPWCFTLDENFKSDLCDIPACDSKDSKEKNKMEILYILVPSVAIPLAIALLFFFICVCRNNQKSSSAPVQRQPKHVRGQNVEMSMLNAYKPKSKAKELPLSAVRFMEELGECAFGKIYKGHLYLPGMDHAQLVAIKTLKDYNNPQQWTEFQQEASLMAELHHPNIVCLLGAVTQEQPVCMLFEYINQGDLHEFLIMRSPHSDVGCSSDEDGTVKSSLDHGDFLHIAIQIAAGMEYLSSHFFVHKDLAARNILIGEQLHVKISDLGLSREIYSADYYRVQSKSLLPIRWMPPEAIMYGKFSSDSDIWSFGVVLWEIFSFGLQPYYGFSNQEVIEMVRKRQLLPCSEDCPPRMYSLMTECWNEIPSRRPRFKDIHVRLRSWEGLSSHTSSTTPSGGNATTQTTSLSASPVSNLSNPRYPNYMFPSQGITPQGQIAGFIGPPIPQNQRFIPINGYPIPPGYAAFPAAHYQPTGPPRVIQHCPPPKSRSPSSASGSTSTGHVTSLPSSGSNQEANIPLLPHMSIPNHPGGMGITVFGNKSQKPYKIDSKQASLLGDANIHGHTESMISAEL
Sequence of human ROR1 (on the cell surface) (human) (Q01973 30-937): as above

B1: Anti-human ROR1 antibody D10 (antibody, from another filing, V domains shown)
VH: QVQLKESGPGLVAPSQTLSITCTVSGFSLTSYGVHWVRQPPGKGLEWLGVIWAGGFTNYNSALKSRLSISKDNSKSQVLLKMTSLQTDDTAMYYCARRGSSYSMDYWGQGTSVIVSS
VL: EIVLSQSPAITAASLGQKVTITCSASSNVSYIHWYQQRSGTSPRPWIYEISKLASGVPVRFSGSGSGTSYSLTISSMEAEDAAIYYCQQWNYPLITFGSGTKLEIQ
B1: in test [1], the positive rate turned out to be 100%.

B2: Anti-ROR1 antibody UC961 (antibody, V domains shown)
VH: QVQLQESGPGLVKPSQTLSLTCTVSGYAFTAYNIHWVRQAPGQGLEWMGSFDPYDGGSSYNQKFKDRLTISKDTSKNQVVLTMTNMDPVDTATYYCARGWYYFDYWGHGTLVTVSS
VL: DIVMTQTPLSLPVTPGEPASISCRASKSISKYLAWYQQKPGQAPRLLIYSGSTLQSGIPPRFSGSGYGTDFTLTINNIESEDAAYYFCQQHDESPYTFGEGTKVEIK
As usually defined, the EC50 is the concentration that produces a half-maximal response. What is called Kd is the equilibrium constant for the complex coming apart. A low value points to higher affinity. The koff is the rate constant with which the complex falls apart. Usually kon stands for the second-order rate constant of association. A lower kon goes with slower complex formation. Turning to B2, the EC50 in [2] stood at 0.2 nM; in test [3] it was 0.3 nM; in test [4], 0.14 nM; in test [5], 1.07 nM; in test [6], 0.16 nM; in test [7], 0.31 nM. The EC50 in test [9] was found to be 0.06 nM; in test [10], 0.46 nM; in test [11], 0.21 nM; in [12], 0.37 nM; in test [13], 0.21 nM; in test [14], 0.36 nM. This molecule came in with a Kd in test [8] of 8.73 nM. The molecule also returned a koff in [8] of 0.0112 s⁻¹. Besides, the kon in test [8] is 1.26e+06 M⁻¹ s⁻¹.

B3: 3D8_HuC24: humanized anti-ROR1 antibody; VH SEQ ID NO:9, VL SEQ ID NO:10, human IgG1 heavy and kappa light chain constant regions (antibody, V domains shown)
VH: EVQLVESGGGLVQPGGSLRLSCAASGFTFSSYAMSWVRQAPGKGLEWVASINSGGSTYYPDSVKGRFTISRDNAKNSLYLQMNSLRAEDTAVYYCARVNYYGYGDYAMDYWGQGTLVTVSS
VL: DIQMTQSPSSLSASVGDRVTITCQASQDISNYLTWFQQKPGKSPKTLIHRANRLVTGVPSRFSGSGSGTDFTFTISSLQPEDIATYYCLQYDEFPYTFGGGTKVEIK
modifications: human IgG1 and kappa constant regions; 3D8_HuC24 VH; 3D8_HuC24 VL
In the case of B3, in test [15], the “kdis” value turned out to be 0.0153 s⁻¹ and the “kon” value amounted to 586000 M⁻¹ s⁻¹. The “affinity versus control antibody UC961” value in test [15] (versus UC961) is given as “comparable”.

B4: 38F8_Hu57: humanized anti-ROR1 antibody; VH SEQ ID NO:17, VL SEQ ID NO:18, human IgG1 heavy and kappa light chain constant regions (antibody, V domains shown)
VH: EVQLVESGGGLVQPGGSLRLSCAASGFTFSNYAMSWVRQAPEKRLEWVASISSGGPTYYPDSVKGRFTVSRDNSKNTLYLQMNSLRAEDTAVYYCARGYRYDVNWYFDVWGAGTMVTVSS
VL: B3 VL with F71Y, T85I
modifications: human IgG1 and kappa constant regions; 38F8_Hu57 VH; 38F8_Hu57 VL
On to B4, for which, in test [15], the “kdis” value worked out at 0.00242 s⁻¹ and the “kon” value was found to be 241000 M⁻¹ s⁻¹. Also, in [15] (versus UC961), the “affinity versus control antibody UC961” value is “comparable”.

B5: 19F6_Hu35V1 (antibody, human IgG1, kappa, V domains shown)
VH: QVQLQESGPGLVKPSQTLSLTCTVSGYSITSDYAWNWIRQFPGKGLEWIGYISYSGSIRYNPSLKSRVTISRDTSKNQFSLKLSSVTAADTAVYYCARGEITYYFDYWGQGTLVTVSS
VL: ETTLTQSPAFMSATPGDKVTISCKASTSIDDDMNWYQQKPGEPPKLIISEGNTLRPGIPPRFSSSGYGTDFTFTINKIKSEDAATYYCLQSNDLPLTFGQGTKLEIKR
notes: Humanized anti-human ROR1 antibody, human IgG1/kappa, expressed in Expi293F cells and purified with Protein A
Consider B5, for which the “fold stronger affinity (KD) than control antibody UC961” value in test [16] came out at 5.4 fold.

B6: 19F6_Hu35V1: humanized anti-ROR1 antibody; VH SEQ ID NO:1, VL SEQ ID NO:2, human IgG1 heavy and kappa light chain constant regions (antibody, V domains shown)
VH: B5 VH
VL: ETTLTQSPAFMSATPGDKVTISCKASTSIDDDMNWYQQKPGEPPKLIISEGNTLRPGIPPRFSSSGYGTDFTFTINKIKSEDAATYYCLQSNDLPLTFGQGTKLEIK
modifications: human IgG1 and kappa constant regions; 19F6_Hu35V1 VH; 19F6_Hu35V1 VL
Take B6: in test [15], the “kdis” value was 0.000863 s⁻¹ and the “kon” value turned out to be 538000 M⁻¹ s⁻¹. Also, in test [15] (versus UC961), the “dissociation rate versus control antibody UC961 (as shown by the Kdis value)” value is on record as “significantly slower”.

For the origin of these results see patent publication US20240269312A1, “ANTIBODY DRUG CONJUGATE, AND PREPARATION METHOD THEREFOR AND USE THEREOF” (SICHUAN KELUN-BIOTECH BIOPHARMACEUTICAL CO., LTD., priority 2021, published 2024).
